Experimental data reported in patent US20250197519A1 (Xencor, published 2025).
One block for each molecule: values may come before it.

Columns and labels:
[1] = molecular target: CD20 on CD20+ Ramos B cells (human) (UniProt P11836); test: flow cytometry on Ramos B cells, PE-conjugated goat anti-human IgG Fc secondary
[2] = molecular target: T1, CD20 on CD20+ Ramos B cells (human, UniProt P11836 1-297); test: as above
T1 construct: whole, on cells; also called human CD20
T1 sequence (looked up): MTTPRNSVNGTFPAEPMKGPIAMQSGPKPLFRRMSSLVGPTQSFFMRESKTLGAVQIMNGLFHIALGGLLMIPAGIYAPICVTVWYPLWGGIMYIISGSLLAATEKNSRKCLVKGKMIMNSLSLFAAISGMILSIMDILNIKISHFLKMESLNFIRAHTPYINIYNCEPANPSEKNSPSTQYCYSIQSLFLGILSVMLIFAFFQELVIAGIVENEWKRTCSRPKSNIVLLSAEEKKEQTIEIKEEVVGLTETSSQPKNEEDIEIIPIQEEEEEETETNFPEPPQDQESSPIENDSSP
Procedure: Next, binding of the improved CD20 mAb to CD20+ Ramos B cells was investigated. 1.5×10⁵ Ramos B cells were incubated with indicated concentrations of bivalent IgG1 mAb having either [CD20]H0L0 or optimized [CD20]_H1_L1 on ice for 1 hour. PE-conjugated goat anti-human IgG Fc was used as a secondary antibody to detect binding of the CD20 mAbs to the target cells.

EC50 [1]: 0.264 µg/mL
Molecule: bivalent IgG1 mAb having the rituximab Fv [CD20]_H0L0 (antibody)

EC50 [2]: 0.175 µg/mL
B1: bivalent IgG1 mAb having humanized/affinity-optimized [CD20]_H1_L1 Fv (antibody, V domains shown)
VH: QVQLVQSGAEVKKPGASVKVSCKASGYTFTSYNMHWVRQAPGQRLEWMGAIYPGNGATSYSQKFQGRVTITADTSASTAYMELSSLRSEDTAVYYCARSYYMGGDWYFDVWGAGTLVTVSS
VL: QIVLTQSPSSLSASVGDRVTITCRASWSVSYIHWFQQKPGKSPKPLIYATSNLASGVPVRFSGSGSGTDYTLTISSLQPEDFATYYCQQWTHNPPTFGGGTKVEIK
notes: also called improved CD20 mAb
